Experiment: yeast display, Sf9 membrane polyspecificity reagent, FACS + sequencing; frameworks hold sequencing errors
In short: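 After 36–48 hours of galactose induction, yeast (Saccharomyces cerevisiae BJ5465) displaying a synthetic nanobody library were stained at 4 °C for 1 hour with 10% biotinylated, detergent-solubilized Sf9 membrane reagent. Streptavidin microbeads enriched the stained cells before FACS sorting into low and high (top ~1%) gates on anti-HA and streptavidin fluorescence. Each clone's polyreactivity label reflects its gate of origin.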

Sequence	polyreactivity (PSR sort gate)
QDQLVESGGGLVQAGGSLRLSCAASGSTFDSYDMGWYRQAPGKERELVAAISGGGGTYYADSVKGRFTISRDNAKNTVYLQMNSLKPEDTAVYYCAARTNGWPGMGYWGQGTQVTVSS	high polyreactivity
QVQLVESGGGLVQAGGSLRLSCASSGLIFAYYGMVWYRQAPGKEREFVAAISWRGGSTYYADSVKGRFTISRDNAKNTVYLQMNSLKPEDTAVYYCAARPLYGSARTNYGYWGQGTQVSVSS	high polyreactivity
QVQLVESGGGLVQAGGSLRLSCAASGRIFVSNVMGWYRQAPGKERELVATITWSDGSTYYADSVKGRFTISRDNAKNTVYLQMNSLKPEDTAVYYCNVDQYTYVDLYWEYYFWGQGTQVTVSS	low polyreactivity
QVQLVESGGGLVQAGGTLRLSCAASGRTFTYYAMGWYRQAPGKERELVATIRSGGTTNYADSVKGRFTISRDNAKNTVYLQMNSLKPEDTAEYYCARVLSYVWYYRDPYQYPDYDFWGQGTQVTGSS	low polyreactivity
QVQLVESGGGLVQAGGSLRLSWAASGGPFSSYDMGWYRQAPGTERELVADITNGGSTNFADSVKGRCTISRDNAKNTVYLQMNSLKPEDTAVYYCATDSYPGLNPDFDYWGHGTQVTVSS	low polyreactivity
QVQLVESGGGLVQAGGSLRLSCAPTGSIFSVYAMGWYRHAPGKESELVATISSSGSTNYADSVKGRFTISRDNAKNTVYLQMNSLKPEDTAVYYCNVVGEYTQSDYSGYDYWGQGTQVTLSS	low polyreactivity
QVQLVESWGGLVQAGGSLRLSCAASGRIFSYYAMGWYRQAPGKERELVAAISRTGGTTYYADSVKGRFTISRDNAKNTVYLQMNSLKPEDTAVYYCNAVKAPYLRYDYWGQGTQVTVSS	high polyreactivity
HVQLVESGGGLVQAGGSLRLSCAASGSIFDDYAMGWYRQAPGKERELVAAISSSGTSTYYADSVKGRFTISRDNAKNTVYLQMNSLKPEDTAVYYCAARSAILKSGYLMDYWGQGTQVTVSS	low polyreactivity
QVQLVESGGGLVQAGGSLRLSCAASGRTFVSNDMGWYRQAPGKERELVATISSGASTYYADSVKGRFTISRDNAKITVYLQMNSLKPEDTAVYYCAAEVLVFGGGYDYWGQGTQVTVSS	low polyreactivity
QVQLVESGGGLVQAGGSLRLSCAASGSTLSVYAKGSYIQAPGKEREFVASISSSVGRTFYADSVKGRFTISRDNANNTVYLQMNSLNQEDTAVYYCAARRRTFYASSSAINGYDYWRQGTQVTVSS	high polyreactivity
QVQLQEGGGLVQAGGSLRLSCAASGYISSRPAMGWYRQAPRKERAFVATIADGTSTYYADSVKGRFTISRDNAKNTVYLQMNSLKPEDTAVYYCAAAYNTEFYLSYWGQGTQVTVSS	high polyreactivity
QVQLVESGGGLVQAGGSLRLSCAASGSTFAAYAMGWYRPAPGTERELVAAISASGGSTYYADSVKGRFTISRDNEKNTVYLQMNSLKPEDTAVYYCAARVFRGLGEYYWGQGTQVTVSS	high polyreactivity
QVQLVESGGGLFQARGSLRLSCAASGRTFWYYTMGWYRPAPGKERELVASITYRGGSTYYADSVKGRFTISRDNAKITVYLQMNSLKREDTALYYCYARYKRYSYDYWGQGTQVTVSS	high polyreactivity
QVQLVESGGGLVQAGGSLRLSCAASGSIFFWNDMGWYRQAPGKERELVAAISWSGGSTSYADSVKGRFTISRDNAKNTVYLQMNSLKPEDTAVYYCAAEYTYGSPYDYWGQGTQVTVSS	low polyreactivity
QVQLVESGGGLVQAGCSLRLSCAASGRIFDNYVMGWYRQAPGQERELVAAISSGGGTYYADSVTGRFTISRDNAKNTVYLQMNSLKPEDTAVYYCAKRRVYDRSFGRYDYWGQGTQVTVSS	low polyreactivity
QVQLVESGGGLVQAGGSLRLSCAASGITLVFNAMGWYRQAPGKERELVAAITSGGITNYADSVKGRFTISRDNAKNTVYLQMNSLKPEDTAVYYCATDYGYFHYPWCPLWGYEYWGQGTQVTVSS	low polyreactivity
QVQLVESGGGLVQAGGSLRLSCAASGFTFTGNAMVWYRQAPGKERELVAAIRGSGGSTYYADSVKGRFTISRDNAKNTVNLQMKSLKPDVTAVYYCATYYIRNKGFDYWGQGTQVTVSS	high polyreactivity
QVQLVESGGGLVQAGGSLRLSCAASGRIFQNYAMGWYRQATGKERELVAAIRRSSGRSYYADSVKGRFTISRDNAKNTVYLLMNSLKPEDTAVYYCNAVRGEEYDYWGQGTQVTVSS	high polyreactivity
QVQLVESGGGLVQAGGSLRLSCAASGVYAMGWYRQAPGKERELVAAISRRGGSTYYADSVKGRFTISRDNAKNTVYLQMNSLKPEDTAVYYCAAKRAGAEYDYWGQGTQVTVSS	high polyreactivity
QVQLVESGGGLVQAGGSLRLSWAASGITFVRYAMGWYRQAPGKEREFVAAINSIVGRTYYADSVKGRFTISRDNAKNTVYLQMNSLKPEDTAVYYCDADSNVRYGMDYWGQGTQVTVSS	low polyreactivity
QVQLVESGGGLVQAGGSLRLSCAASGSIFYHYAMGWYRQAPGKVRELFAAISGSGGSTYYADSVKGRFTISRDNAKNTVYLQMNSLKPEDSAVYYCAADTSRYHYTRYFFDSDYWGQGTQVTVSS	low polyreactivity
QVQLVESGGGLVQAGCSLRLSWAASGFTFTYYAMGWYRQEPGKERELVAAISDGGASTYYSDSVKGRFTISRDNAKNTVYLQMNSLKPEDTAVYYCAAETYWPWKDDYWGQGTQVTVSS	high polyreactivity

Sequence	polyreactivity (PSR sort gate)
QVQLVESGGGLVQAGGSLRLSCAASGRTFSKYAMAWYRQAPGKERELVAAISSSGGSTYYADSVKGRFTISRDNAKNTVYLQMNSLKPEDTAVYYCATRVYPRYWFTTRYRYDYWGQGTQVTVSS	low polyreactivity
QVQLVESGGGLVQAGGSLRLSCAASGRTYGYAMGWYRQAPGKERELVARITWRGGSTSYADSVKGRFTISRENAKNTVYLQMNSLKPEDTAVYYCAAGFNSSDWHYYYRGQGTQVTVSS	high polyreactivity
QVHHEETGGGLVQAGGSLRLSCSASGRTFVYYDMGWYRHATGKERQLVAAIDSSGSTYYADSVKGRFTISRDNAKNTVYLQMNSLKPEDSAVYYCGAGYWFFPYWYDYWGQGTQVTVSS	high polyreactivity
QVQLVETGGGLDQAGGSLRLSCAASGRIFRKYVMGWYRQAPGKERELVAVISSGASTNYADSVKGRFTISRDNAKNTVYLQMNSLKPEDTAVYYCAKYGKYTWRQGGYWGQGTQVTVSS	high polyreactivity
QVQLVESGGGLVQAGGSLRVSCAASGFTFVGTAMGWYRQAPGKERELVAAITWSGGRTYYADSVKGRFTISRDKAKNTVYLQMNSLTPEDTAVYYCATRWRGRMDYWGQGTQVTVSS	high polyreactivity
QVQLVESGGGLVQAGGSLRLSCAASGFIFSTYAMGWYRQAPGKERELVASIDWSGDSTYYADSVKGRFTISRDNAKNTVYLQMTSLKPEDTAVYEFAADDASYPYIFDSYDYWGQGTQVTVSS	low polyreactivity
QVQLVESGGGLVQAGGSLRLSCAASGSTFAYYAMGWYRQAPGKERELVAAITSSGGSTYYADSVKGRFTISRDKAKNTVYLQMNSLKPEDTAVYYCNARYRRKSWRPFDYWGQGTQVTVSS	high polyreactivity
QVQLVESGGGLVQAGGSLRLSCAASGFTFAYHAMGWYRQAPGKERELVAGINSSGDGTYYADSVKGRFTISRDNAKNTVYLQMNSLKQEDTAVYYCAADYTGFYQDGSYVDYDYWGQGTQVTVSS	low polyreactivity
QVQLVESGGGLVQAGGSLRLSCAASGRIFAPYAMGWYRQAPGKERELVAAISWRVGSTYYADSVKVRFTISRDYAKNTVYLQMNSLKPDDTAVYYCAARPSYRYDYLGQGTQVTVSS	high polyreactivity
QVQLVESGGGLVQAGGSLRLSCAASGSTFYRYAMGWYRQAPGKERELVARITWSAGRTYYADSVKGRFTISRDTAKNTVYLQMNSLKPEDTAVYYCAADSGGFASNKRMDYWGQGTQVTVSS	high polyreactivity
QVQLVESGGGLVQAGGSLRLSCAASGRTFPYNFMGWYRQAPGKERELVAGITGSGDSTFYADSVKGRFTISRDNAKNTVYLQMNSLKPEDTAVYYCAARYRTLNDGYNRNYWGQGTQVTVSS	low polyreactivity
QVQLVESGGGLVQAGGSLRLSCAASGITFQYYAMGWYRQAPGKERELFARISSSGGRTFYADSVKGRFTISRDNAKNTVYLQMNSLKQEDTAVYYCAAGSLSLSNSTVWFEYDYWGQGTQVSVSS	high polyreactivity
QVQLVESGGGLVQAGGSLRLSCAASGRIFYFNAMGWYRQAPGKERELVAAMSWTGGSTYYADSVKGRFTISRDTAKNTVYLQMNSLKPEDTAVYYCAADRALSISLYPIASFDYWGQGTQVTVSS	low polyreactivity
QVQLVESGGGLVQAGGSNRLSCAASGCIFSRYLMGWYRQAPGIETELVADISGSRGRTYYADSVKGRFTISRDNAKKTVYLQMNSLKPEDTAVYYSNKVWFGYSGVDDYWGQGTQVTVSS	high polyreactivity
QVQLVESGGGLVQAGGSLRFSCAASGNILPSNAMGWYRQAPGKERELVAVINSSGNTNYADSVKGRFTISRDNAKKTVYLQMNSLKPEDTAVYYCVIWFRYDRARKLYYWGQGTQVTVSS	high polyreactivity
QVQLVESGGGLVQAGGSLRLSWAASGFTFSVYAMGWYRQAPGKERELVAAISSGGSTNYADSVKGRFTISRDNAKITVYFQMNSLKPEDTAVYYCADSITVGYSNYYYWGQGSQVTVSS	high polyreactivity
QVQLVESGGGLVQAGGSLRLSCAATGRTIHGYAMGWYRQAPGKERELVAAITGTGGRTYYADSVKGRFTISRDNAKNTVYLQMNSLKPEDTAVYYCAARPWIKSGYWGQGTQVTVSS	high polyreactivity
QVQLVESGGGLVQAGGSLRLSCAASGRTFPTYAMGWYRQAPGKERELVATISYNGGRTYYADSVKGRFTISRDNAKNTVYLQMNSLKPEDTAVYDCNAVVYVVGDFDYWGQGTQVTVSS	high polyreactivity
QVQLVESGGGLVQAGGSLRLSCAASGFTLTLRYAMGWYRQAPGKERELVAAISSGGRTKYADSVKGRFTISRDNAKNTVYLQMNSLKPEDTAVYYCAADLYDPYHVYGYNYWGQGTQVTVSS	low polyreactivity
QVQLVDSGGGLVQAGGSLRLSCAASGRIFRRYTMGWYRQAPGKERELVAAISSGGGTNYADSVKGRFSISRDNAKNTVYLQMNSLKPEDTAVYYCNARSWLSRGYGYWGQGTQVTVSS	high polyreactivity
QVQLVESGGGLVQAGGSLRLSCAASGRTFYVYAMGWYRQAPGKERELVAAITFSGGSTYYADSVKGRFTISRDNAKNPVYLQMNSLKPEDTAVYYCNRRSYVPDRFRHDSSVIYDYWGQGTQVTVSS	low polyreactivity
